Laboratory results published in patent publication US20220281969A1 (ANTLERA THERAPEUTICS, published 2022).

Biological target: T1, recombinant human LRP6-Fc chimera (human, UniProt O75581 20-1370)
T1 construct: extracellular domain; also called human LRP6 chimera; not shown: Fc part of the chimera
T1 sequence (looked up): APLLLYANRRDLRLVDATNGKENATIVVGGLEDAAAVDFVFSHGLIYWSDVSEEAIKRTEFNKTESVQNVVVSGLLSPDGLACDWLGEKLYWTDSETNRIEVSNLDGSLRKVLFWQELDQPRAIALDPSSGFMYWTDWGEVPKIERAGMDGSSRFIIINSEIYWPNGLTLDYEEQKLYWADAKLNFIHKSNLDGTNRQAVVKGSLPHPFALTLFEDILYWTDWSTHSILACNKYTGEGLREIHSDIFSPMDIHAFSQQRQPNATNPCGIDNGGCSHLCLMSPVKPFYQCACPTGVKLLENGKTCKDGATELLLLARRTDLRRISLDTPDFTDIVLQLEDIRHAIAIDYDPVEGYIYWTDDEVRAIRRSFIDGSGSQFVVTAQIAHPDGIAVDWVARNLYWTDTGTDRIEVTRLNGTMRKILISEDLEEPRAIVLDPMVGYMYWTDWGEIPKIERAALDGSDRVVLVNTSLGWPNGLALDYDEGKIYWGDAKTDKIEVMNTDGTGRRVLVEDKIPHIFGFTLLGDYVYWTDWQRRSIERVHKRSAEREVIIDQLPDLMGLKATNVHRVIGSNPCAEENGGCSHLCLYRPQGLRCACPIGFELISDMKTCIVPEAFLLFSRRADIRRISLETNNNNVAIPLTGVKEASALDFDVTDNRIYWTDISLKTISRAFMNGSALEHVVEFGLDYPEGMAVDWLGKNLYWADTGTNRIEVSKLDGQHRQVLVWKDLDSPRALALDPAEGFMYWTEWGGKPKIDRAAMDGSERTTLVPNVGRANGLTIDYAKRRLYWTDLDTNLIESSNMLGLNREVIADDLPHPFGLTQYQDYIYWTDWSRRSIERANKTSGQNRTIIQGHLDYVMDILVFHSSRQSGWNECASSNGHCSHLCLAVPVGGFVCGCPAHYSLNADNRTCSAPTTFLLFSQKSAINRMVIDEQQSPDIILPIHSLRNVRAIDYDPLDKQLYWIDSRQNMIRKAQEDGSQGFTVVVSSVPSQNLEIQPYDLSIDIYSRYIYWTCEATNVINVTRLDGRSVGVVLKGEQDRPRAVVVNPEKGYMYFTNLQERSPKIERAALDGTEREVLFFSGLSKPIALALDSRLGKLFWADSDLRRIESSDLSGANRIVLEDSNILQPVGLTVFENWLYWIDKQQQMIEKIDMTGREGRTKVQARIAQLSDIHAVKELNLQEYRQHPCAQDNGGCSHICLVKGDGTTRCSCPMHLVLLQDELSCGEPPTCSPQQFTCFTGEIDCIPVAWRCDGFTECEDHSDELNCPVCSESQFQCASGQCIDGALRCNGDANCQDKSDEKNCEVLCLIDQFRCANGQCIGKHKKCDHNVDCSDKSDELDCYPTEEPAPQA
Test: single-point ELISA, IgG1 on coated antigen
Method: FIGS. 1a and 1b show LRP six antibodies. (A) The amino acid sequences of the complementarity determining regions (CDR) of the heavy (H) and the light (L) chains are presented. The antibodies were grouped into unique epitopes as determined by competitive ELISAs. (B) Single-point ELISAs were performed on 96-well Maxisorb immune plates coated with the […] of mouse LRP5, mouse LRP6 and human LRP6 chimeras. The plates were incubated with the purified Fab or IgG1 at the concentrations indicated followed by incubation with horseradish peroxidase (HRP)-conjugated anti-kappa antibody. The wells were washed eight times followed by incubation with 3,3′,5,5′-tetramethylbenzidine/H₂O₂ peroxidase (TMB) substrate for 5-10 min. The reaction was stopped by adding one M H₃PO₄ and the absorbance was measured spectrometrically at 450 nm in a microtiter plate reader.
The full length IgG1s were purified and a single-point ELISA was done to determine the specificity of the antibodies. […] A multipoint competitive ELISA was used to determine the relative affinities of the antibodies to the recombinant antigen.

- binding result: no binding
B1: LRP6-E3 IgG1 antibody (antibody, V domains shown)
VH: EVQLVESGGGLVQPGGSLRLSCAASGFNLYYYSMHWVRQAPGKGLEWVASIYSSYGYTYYADSVKGRFTISADTSKNTAYLQMNSLRAEDTAVYYCARYAGYYYYPWAYYGWPFSGLDYWGQGTLVTVSS
VL: DIQMTQSPSSLSASVGDRVTITCRASQSVSSAVAWYQQKPGKAPKLLIYSASSLYSGVPSRFSGSRSGTDFTLTISSLQPEDFATYYCQQAGSAPYHLITFGQGTKVEIKR
notes: Tested as purified full length IgG1
